Data taken from the DeepSol protein solubility set.

Experiment: soluble on expression in E. coli; label from the status in PepcDB or PDB records

| Sequence | soluble on expression in E. coli |
| --- | --- |
| MSVTVFIPGDSAALAVGANRVAEAIAREAASRNLDVQIVRNGSRGMLWLEVLVEVRTEHGRIAYGPVKAADVTSLFDADFLDGGDHRLCLGPTKDIPFLKNQTRLTFARCGVTDPLSLEDYRNYQGMKGLEKAVTMEPLAIVAQVTESGLRGRGGAGFPTGIKWKTVADARADQKYIVCNADEGDSGTFADRMIMEGDPFVLIEGMAIAGLAVGATKGFIYTRSEYPYAIKVMEKAIEIARREGILGSSVLGSGRAFDMEVRMGAGAYVCGEETSLLNSLEGKRGTVRAKPPLPALQGLFGKPTVVNNVISLASIPVIMDRGAAFYRDFGVGRSHGTIPIQLAGNIRYGGLYETAFGLTLGQLVNDIGGGTITGRPVKAVQVGGPLGAYFPVSLFDTIFDYEAFTAAGGLIGHAGIVVFDDTADMLHQARFALEFCAVESCGKCTPCRIGSTRGVETVDKIALGIEREKNTALLEDLCETMKFGSLCALGGFTPYPVMSALRHFPQDFAPIPRVEAAEAAALEHHHHHH | not soluble |
| MSLRHFFGAFLLGMATLTVMPTEQVLAGTLTGQPPIVIGHRGASGYRPEHTLAAYELAIQMGADYIEPDLVATKDGVLVARHENALAILNADGTLNLTDTSTDVFERLQFADRKTTKVIDGRSITGWFTEDFTLAELKTLRAIERIPGIRPQNTQYDRQFEIPTLQEVIDLAKAQSAALGRTIGIYPETKHPTYFDSIGLSMEEILVSVLNANGYVDESAPVYIQSFEVSNLKDLNRLTNVSLVQLISPSGRPYDFVVNGDSRLYRDLITPLGLAEIATYANGIGANKNLIIPRDGRGNLLSPTTLVDDAHAAGLIVHAWTFRNEDVFLPTNLQGNPQEEYKRFYQTGIDGLFSDNPDTAFAVRSTLVPEPGTIFGLGFVPLLGWLFRRRKEGHHHHHH | not soluble |
| MGSDKIHHHHHHMNRGCFDIAVITDREAFQAILDEWNQLADINGYYTPWFCWEWFDLCLRHGETRALHILMVRSGGSLVAVAPFTVRSERYKGVVPARILSSIGGNRSPLKGIVFGDADENMQREVTTLVLEYLRTTFKNWDILELEPVAGSNDGNSIETLIERQGLSFRSYISCANRYCDVADASFDGFFERLPQSTRKDINYCRRRLEKNGSLVFQIITDAASLDQCLDVYDAVRAKSWKAAEKDREFNRELMHVAAGKGWLRLGILSYDGTPIAVQKWIVANGRAYIYDVLYDEEYKKHSPGKILTSMMFQHAIDNERVAYVDYLRGDEPYKEEWTPSLRNRIGIEAYNKSVLGCTASILMKKILPLVKKNTDSTNAHK | not soluble |
| DLAKELFTHKGSGTLIRRGERVIRATTWKDLDLPRLQHLIQSSFRRTLIPHYFETTPLLRAYVSENYRAAVILTKLGNVPYLDKFAVLDDAQGEGLGRAVWSIMREETPQLFWRSRHNNQANAFYYAESDGYYKQDHWKIFWNGLHHFQQIQQCVAHCTQH | not soluble |
| MPHPKLTPKCEAPPEKRLAHLEIRFKDRRHIIPPLFHNGWVGRNEDRTLLNDTIIEFYMCDWMRLEVFDEATRASSHVFHSFFLPKIKTCFKDFKENPPRRSELANHYNRFFRSKNDAETFLKKDILLIPVHLDKPKHWFLVIVHNPSGAVRRISDVNILDATNKVKSRRLSRRITGHVNCDENAGECRIIIMDSLVHSKKYREVIDKTHDSTFDHIRLWLLMSAAATDVDMFCTRFRKVVCQKLPQQKNSVDCGIFMMAFAEYFTKYNTAWQSLPTDALADLKMDDDIKSLLNSETPRQRLDELFQSLKA | not soluble |
| MGSDKIHHHHHHMNSLLASIDSSRAMPVLEDITQHEISALKTRFNLADAHTHQDQSDTQRMIVASLPELWYQAQNQTQYQSEQAFIRAFFTFHGQHHALKRHDEIYLVYAASIAMHITATYLRKNTLSVGLIEPCFDNLHDLLKHMEVPMSPLDESLFSSSSEVYANLQKAAIGLDAIFLVDPNNPTGSSLFADGPDTFVEVARYCRDYNKLLILDFCFASFFMAAGRERVDAYAILDDIGTRYLIMEDTGKTWPLQDTKCATLMASKDINAEIYSIVTSVLLNVSPFILNVVTRYIEDSNDDDFNSVRSVLEVNRRRARDCLEGKVLKYMQPMIDTSVAWFEILPAGIDADELQTYLLQWDVYVLPGKYFYWSQPEKGQRYIRLALARKPEEFDAAVQMIAHALEHFHV | not soluble |
| MSLELMEEVDRTVHHMQDEAANFPDPADRASQEEEFSLELRARDRERKLIKKIDETLQLIEDEEYGWCDSCGVEIGIRRLEEGHHHHHH | not soluble |
| SDDTLFQLKFTAKQLEKLAKKAEKDSKAEQAKVKKALQQKNVECARVYAENAIRKKNEGVNWLRMASRVDAVASKVQTAVTMKGVTKNMAQVTKALDKALSAMDLQKVSAVMDRFEQQVQNLDVHTSVMEDSVSSATTLTTPQEQVDSLIVQIAEENGLEVLDQLSQLPEGASAVGESSVRSQEDQLSRRLAALRN | soluble |
| MSLTEPEDPSRERLKHHFAQRVIHQARQILEIWQRLQRSEWSTTDMSELCEANLRLLRFAERFEQPEHTQLARSISQSLEAVDANRGRLSSNLITDLNRLMQRLSRTGLRHGDQLEQTFLPPLRKPIYVMLQDHDRAERLAKQLEFFGLSAQSLDSIPAFRSSMVERLPAAIVIDVDFCGAGMGLTLAAEAQVGLEQKLPLLFFSLHETDTPTRLAAVRAGGQEFLTGTLEASSLLEKIEVLTCVAQYEPYKVLIIDDSRAQALHTERLLNSAGIVTRTLIEPIQAMAELADFQPDLIILDMYMPACTGTELAKVIRHNDRYVSVPIIYLSAEDDLDKQLDAMSEGGDDFLTKPIKPRHLITTVRNRAARARNLKARMVRDSLTGLYNHTHILQLLEDCSFRARREGKPLSFAMLDIDHFKRVNDSHGHPMGDRVIKSLALFLKQRLRKTDFIGRYGGEEFAIVMPDTDQDAACKVLDEIRQRFAEIHYPAQPQDLWCTFSAGVVEMQEDSDSLIMASQADEALYRAKHGGRNRVQAARSSQSAIFSSESTDSVITLEGHHHHHH | soluble |
| MSLKLWENGTFYQMTAEGEQVSAVLTKNGQIHAVGEVADLKKQYATEIDETIDLEGKVVFPGFVDAHIHLLWYGQALERLNLNQTTTKKEALALILERTKQLASEEWLFVEGYDENKWSDEQTLISLVDLDGVSTTNPILVRRIDYHSVSINSALKAHIENFSENGFDGGGEIVRDKAGNFTGILRDNATTLAIDAFPAATPAELNAWLKIAITDLWSKGITGAHSEDLHYFTGFESTFAAFRNTVGANRLPFRAHLLIHHAELANFSTSKESFMSGDKFLELGAMKIFYDGTVGSRTALMSAGYADNPNEKGLQIHSDEAFEDLVQSARKAGLPVAIHILGDQAFANVIRTLRANPPKEGQYDRLIHTPWLTKELIAEAEGLPILFDVQPQFMASDLPWAIDVLGENHPPLAFAWNSLLRAGFPLAGGSDAPIEVPNPFWGIHAAVTRTANADLNGVKYWPEESLTVYEAIELYTKGAAFASYKTTSRGQIAPGFVADFTILAEDPFLIKPANLRHLEVMMTVVNEQVVYKKEGHHHHHH | soluble |
| MPAENIVEVHHLKKSVGQGEHELSILTGVELVVKRGETIALVGESGSGKSTLLAILAGLDDGSSGEVSLVGQPLHNMDEEARAKLRAKHVGFVFQSFMLIPTLNALENVELPALLRGESSAESRNGAKALLEQLGLGKRLDHLPAQLSGGEQQRVALARAFNGRPDVLFADEPTGNLDRQTGDKIADLLFSLNREHGTTLIMVTHDLQLAARCDRCLRLVNGQLQEEA | soluble |
| MAHHHHHHMDTRGLRHLKSYLGKEGEQLARAKRASDVVPVLAARQAAAAAAARATAADVTTVSNTVPAPLSPSVMKYLGGRLASGATHKLSRTQMALAAALAAPGAPSTRGHAEGSENGETALAVTRAKVADMAAAVDTLAVSALELAARRAAEDTEARRSTAESSSLFVLVDTSSEAAEVAGQLEGRYGLTVLLLRDDNACRHPTFPSPASRAGVSTLRGTTSKTPAAERRKTKSNSRTVDEVAPKDEATESTPALAGAVVVVVATPAAFLAVDRRSAIWKFIGSCALLLRRAPTHTGSLLHTLKGIKAAASSSPTKTTPHALNAQRWACIGHVPAIAVLAAEQKWLTEPELDLLTTLRVERHVGSGVGVVSKSTEASVSSAVAALRAPVTVHYAVAQGTHRFQFLFGLLKGLAPHRGIVVHVATRECVAFLYDTLYSLVGELPSHVQLLSDYEGASAYTNMHTTADRQRLCVAFDSTVESGQNGKTAAVLLSCHGLVPRRGSVFLQYDVIPDLLNYNQFIAEVLSPGAVAADAGNDAGGTAPSAAAEVAVRRERMARRRKRSTSPTPAPVAARRVGADAANSAADASSGSKAAIPAAVNYTHILLLFRPNEVAGALRHLRRDGASRYRLEFRELGPRAGGRYFLIGEKLKSMNKKLFPVQNAAYDAYKATMRTYSTIGPRDVYDETKVSLEKVAEEFGYTELPLLDLRLKDTVFRPKEDYYRAARQKQDAERRAYKAFVQGNIVGESPEEHVADSVA | soluble |
| MSSIKIECVLPENCRCGESPVWEEVSNSLLFVDIPAKKVCRWDSFTKQVQRVTMDAPVSSVALRQSGGYVATIGTKFCALNWKEQSAVVLATVDNDKKNNRFNDGKVDPAGRYFAGTMAEETAPAVLERHQGALYSLFPDHHVKKYFDQVDISNGLDWSLDHKIFYYIDSLSYSVDAFDYDLQTGQISNRRSVYKLEKEEQIPDGMCIDAEGKLWVACYNGGRVIRLDPVTGKRLQTVKLPVDKTTSCCFGGKNYSEMYVTCARDGMDPEGLLRQPEAGGIFKITGLGVKGIAPYSYAG | soluble |
| RETFKVLLQGVPDGIDLEGLKTDILSLPHIRSVHDIHLWTLDGESHVMTIHVVYCPDDFSSPQAVFDMKESVREKCSAHGIRHATIELDPEGCSCGMESC | not soluble |
| MEQIGLIGYGSMADMIARQLLKHEQIKENELFIETRTKGERLRALMSDYPNVSADPLENWANTCQLILICVPPLHVIETMRRLYPYVNRNTHIVSIAAGVPLRLLEAETEAGISRVIPAITSEAEAGISLVVHSEALAAEKKERLNELLSVFSRVREIKESNLDVASNLTSSAPGFIAAIFEELALSAVRNSSLSKEEAFDFLIHSLYGTGKMLIEKNMSFEETLERVATKGGITGEGAEVIHASVPDVFDEVFERTLRKYELLTEQVGKQTLEHHHHHH | soluble |
| MSIPLLEYKPSSQNQRVPGYEVPNEDTPRIYRIEDAAYDSELKELIWATYRQVFSEHVILKFFRQGNLESQLKNRAISVRDFVRGLAKSEAFKTLVIKSNSNYRLVELALKRLLGRAPYNKDEEIAWSIKIATNGWDGFVDALLDSEEYQSNFGENIVPYQRRRYKDRPFNLVTPRYGNYWRDKLESERYIEGDIKNFLELAKSIEIKTVTFTPVSTANIKIPDTTRNTTPTGIPISVNPSANFPVRLEHHHHHH | not soluble |
| MTSKADYLKKYLSPASGDIEKKKKKKNKDKNKPSGLRLIEEDAFLSVDAAKTRDIGSDEEREEIEVLKQSVKKAKVVHGFKQTFAEVDAPKVIKPEPLSPDNSPPRGKRQRHDSDNSPPRPSRKRNDSDNSPPRPSRNRHDSDKDNSPPRRRRHDSDNSPPRPSRKIREESPSARNRRSPPRTRRDRHDSDNSPPRNRSRRDSDNSPPRRRPSSPARRRKDDDLSPPRKSRKIEEPKKIKKEEPDSDTETSGRTLEGKRSGLQSARDLKEESDKLRAKNSKMFEEMDTSVSGRFADTVYRQKQTKKKGKDSEEDQAKKERETKKTEELKEKYKSWNKGVAQIEDRRAQLEEMARVAAEPMARARDDDAMNAHLKEVLHAADPMANMIQKKRRDTAIDRGELVYPSYHGHFVPNRFGIAPGYRWDGVDRSNGFEGKLAKTENTKTANQSEYYKSIAEYE | not soluble |
| QVINTFDGVADYLQTYHKLPDNYITKSEAQALGWVASKGNLADVAPGKSIGGDIFSNREGKLPGKSGRTWREADINYTSGFRNSDRILYSSDWLIYKTTDAYQTFTKIRSSSMGVCPKILKKCRRDSDCLAGCVCGPNGFCGS | soluble |
